Source: patent US20200147161A1 (University of Texas, published 2020)

What was measured:
HLA-A2 on T2 cells [1] = target: T1, HLA-A2 on T2 cells (human); test: HLA-A2 stabilisation on T2 cells, 18 hours, flow cytometry, FI index
T1 construct: The text of the assay says only 'HLA-A2'; also called HLA-A2 allele
Method: The peptides were synthesized and pulsed with T2 cells with a series of diluted concentrations for 18 hours. After incubation, the HLA-A2 expression level of T2 was detected by flow cytometry and the FI index was calculated. The M27 peptide was used as a weak binding peptide control and the M26 peptide was used as a strong binding peptide control.

[2] = target: T2, VCY; VCY-37 peptide peptide on HLA-A*02:01 (human); test: multimer staining
T2 peptide: KVAEKGEAV

[3] = target: T3, VCX/Y family (VCX1, VCX2, VCX3A, VCX3B, VCY); VCX54 peptide peptide on HLA-A*02:01 (human); test: multimer staining
T3 peptide: GAATKMAAV

HLA-A2 on T2 cells [4] = target: T1, HLA-A2 on T2 cells; test: HLA-A2 stabilisation on T2 cells, 18 hr, flow cytometry, fluorescence index
Method: The predicted peptides were synthesized and co-cultured with T2 cells with a series of diluted concentrations. DMSO without peptide or with the same concentration of negative binding to HLA-A2 peptide were used as control. After 18 hr incubation, the HLA-A2 expression was detected by flow cytometer. The fluorescence index (FI) was calculated as follows: FI=(mean fluorescence with the given peptide−mean fluorescence without peptide)/(mean fluorescence without peptide). […] The VCX54 epitope is found in all members of the VCX/Y family including VCX1, VCX2, VCX3A, VCX3B, or VCY which are expressed in various lung cancer cells (FIG. 1B).

B1: VCY-37 peptide (KVAEKGEAV) (peptide)
peptide: KVAEKGEAV
notes: Synthetic 9-mer from VCY
binding result (HLA-A2 on T2 cells [1]): binds

B2: VCY-37 CTL TCR (TCR, V domains shown)
Valpha: AQKVTQAQTEISVVEKEDVTLDCVYETRDTTYYLFWYKQPPSGELVFLIRRNSFDEQNEISGRYSWNFQKSTSSFNFTITASQVVDSAVYFCALSLLSYNTDKLIFGTGTRLQVFP
Vbeta: DTGVSQDPRHKITKRGQNVTFRCDPISEHNRLYWYRQTLGQGPEFLTYFQNEAQLEKSRLLSDRFSAERPKGSFSTLEIQRTEQGDSAMYLCASSTPGPSGANVLTFGAGSRLTVL
binding result [2]: recognises

B3: VCX54 CTL Clone-7 TCR (TCR, V domains shown)
Valpha: AQKITQTQPGMFVQEKEAVTLDCTYDTSDPSYGLFWYKQPSSGEMIFLIYQGSYDQQNATEGRYSLNFQKARKSANLVISASQLGDSAMYFCAMITSGNTGKLIFGQGTTLQVKP
Vbeta: AAGVIQSPRHLIKEKRETATLKCYPIPRHDTVYWYQQGPGQDPQFLISFYEKMQSDKGSIPDRFSAQQFSDYHSELNMSSLELGDSALYFCASSPPGGGRTEAFFGQGTRLTVV
binding result [3]: recognises

B4: VCX54 peptide (GAATKMAAV) (peptide)
peptide: GAATKMAAV
notes: Synthetic 9-mer shared by all VCX/Y family members; added to T2 cells in the HLA-A2 stabilisation assay; also called GAATKMAAV (54)
binding result (HLA-A2 on T2 cells [4]): binds

B5: VCX-58 peptide (KMAAVEAPEA) (peptide)
peptide: KMAAVEAPEA
notes: Synthetic 10-mer
binding result (HLA-A2 on T2 cells [1]): binds
